The values that follow come from US10239923B2, “Specific amyloid beta binding peptides and the use of same for treating and diagnosing alzheimer's dementia” (Forschungszentrum Juelich GmbH, priority 2015, dated 2019).

Square brackets hold non-standard residues; d marks the D form.

In one data set the target is Aβ1-42 (Homo sapiens, UniProt P05067). As to the kind of experiment: ThT test, modulation of Aβ1-42 aggregation. The conditions noted are these: 10 μM Aβ1-42, equimolar peptide, versus Aβ1-42 alone = 100%. The data set is classed as biochemical. The source says:
FIG. 3: The average relative fluorescence from seven independently performed ThT experiments with standard deviation is shown. The dye Thioflavin T (ThT) binds to β-pleated sheet structures in the batch and thereupon changes its fluorescence spectrum. […] The time in which the logarithmic rise of the fluorescence signal transitioned into a stationary phase was set to 100%.

In data set [1] the target is Aβ1-42 species of different size (Homo sapiens, UniProt P05067). As to the kind of experiment: Density gradient centrifugation, tris-tricine SDS gel and silver staining of Aβ1-42 species. The format is biochemical. The note with it: 80 μM Aβ1-42 pre-incubated […], 40 μM peptide for 40 minutes. Here is the method:
The batch was then incubated either with or without addition of peptide for a further 40 minutes and was then placed on an iodixanol density gradient. The gradient was then centrifuged, wherein the contents of the sample (Aβ1-42 species of different size) diffused within the gradient in accordance with their size and shape. The gradient was fractionated after centrifugation into 15 fractions (1-15), and the first 14 individual fractions were applied to a tris-tricine SDS gel. The contents per fraction were separated electrophoretically. […] The batch was then incubated either without (A) or with addition of different concentrations of Mosd1 (B=10 μM Mossd1; C=20 μM Mosd1; D=40 μM Mosd1; E=80 μM Mosd1) for a further 40 minutes and was then placed on an iodixanol density gradient. The gradient was then centrifuged, wherein the contents of the sample (Aβ1-42 species of different size) diffused within the gradient in accordance with their size and shape. The gradient was fractionated after centrifugation (1-15), and the individual fractions were applied to a tris-tricine SDS gel. The contents per fraction were separated electrophoretically.

Data set [2] has as its target T1, Aβ1-42 monomers versus Aβ1-42 oligomers and fibrils (biotinylated, D-enantiomeric, immobilized) (Homo sapiens, UniProt P05067).
T1 construct: biotinylated, D-enantiomeric Aβ1-42 monomers
As to the kind of experiment: Monoclonal phage ELISA. The data set is classed as binding. The note with it: individual phage clones; species immobilized at 320 nM; absorption at 450 nm normalized with 6E10 control; higher = more monomer-specific. From the text:
The specificity of the peptide results from the difference in % of the absorption values for the target molecule or the bait (for example A beta monomer) and the normalized absorption values for the competitors (for example A beta oligomers and fibrils) in the monoclonal phage ELISA.
The absorption values then constitute the affinity of individual phage clones for a particular immobilized A beta species. Here, the specificity is not dependent on the strength of the affinity, but instead only on the difference of the affinities between the species. […] The terms “competitors” and “target molecule” or “bait” are defined as specified below.
A method for normalizing the obtained values should therefore be performed. From all absorption values of the individual phage clone in the monoclonal phage ELISA, the values of the phage antibodies tested for cross-reaction can be used as background. This occurs in accordance with the previously immobilized species. The signal values of the phage antibody from the reaction trays with immobilized Aβ1-42 oligomers for this purpose can be removed from the signal values of the individual phage clone from the reaction trays with immobilized Aβ1-42 oligomers. A similar process is then carried out for Aβ1-42 monomers. In this way, a possible background signal of the phage antibody can initially be calculated from the signals of the individual phage clone. […] Only in this way is an equal interpretation of the results particularly in respect of the assessment of the specificity of the individual phage clone possible (see FIG. 2).
The affinity of individual phage clones with respect to the target molecule and the competitors was examined by means of ELISA. For this purpose, all three species were immobilized in biotinylated form on a polystyrene surface at streptavidin bound thereon. Since, during the panning rounds, oligomers and fibrils were added at the same time as competitors, these two species were immobilized in the monoclonal phage ELISA, likewise mixed. […] The streptavidin-coated microtiter plates were pre-washed as specified by the manufacturer. […] For immobilization, 100 μl were used per reaction tray and were incubated for 15 minutes at room temperature. After having washed the entire plate(s) twice with 150 μl 1×TBS per reaction tray, a blocking step with 150 μl 1×TBS/0.1% (v/v) Tween-20/1% (w/v) BSA was performed for an hour at room temperature. Three washing steps with 150 μl 1×TBS/0.1% (v/v) Tween-20 then followed per reaction tray. The amplified individual phage clones were mixed 1:1 with 1× TBS/1% (w/v) BSA. The antibody 6E10 was diluted 1:10,000 in 1×TBS/0.1% (v/v) Tween-20. […] After washing five times with 150 μl 1×TBS/0.1% (v/v) Tween-20 per reaction tray, 200 μl 1×TBS/0.1% (v/v) Tween-20 were placed in each reaction tray, and the plate(s) incubated for one hour at room temperature. The solutions were removed and replaced as follows: In all reaction trays that had been incubated previously with individual phage clone dilutions or the batch without phages, 100 μl of a phage antibody diluted 1:5,000 in 1×TBS/0.1% (v/v) Tween-20 were now added. The enzyme horseradish peroxidase (HRP) was coupled to this antibody and later served for the conversion of a substrate (TMB). […] At the same time, 100 μl of a second antibody diluted 1:1,000 in 1×TBS/0.1% (v/v) Tween-20 were now added to all reaction trays that had been previously incubated with the dilution of the 6E10 antibody, said second antibody being able to identify and bind to the 6E10 antibody originating from mice. This antibody is also HRP-coupled and thus allows a quantification of the binding of the first antibody to the immobilized target molecules or the plastics surface of the reaction tray. After one hour of incubation at room temperature, the plate(s) was/were washed 10 times with 150 μl 1×TBS/0.1% (v/v) Tween-20 per reaction tray. The signal was detected by adding the substrate 3,3′,5,5′-tetramethylbenzidine (TMB). […]

Another data set relates to PC-12 cells. As to the kind of experiment: MTT reduction test, Aβ1-42-induced cell toxicity. The format is cell-based. The note with it: 0.1% TritonX-100, positive control for cell toxicity. Here is the method:
The samples were placed in the culture medium of the cells and were incubated over 24 hours with the cells at 37° C. The viability of the cells was then determined on the basis of an MTT test. Here, a metabolic reactant was supplied to the cells, which reactant could be converted by metabolically active cells (living cells). Formazan crystals are the product of this conversion and can be dissolved. The coloration of the medium after solubilization corresponds to the conversion rate of the reactant and therefore the viability of the cells. Untreated cells (medium, white chequered pattern) served as living control, and the proportion of vital cells was defined as 100%. The values of the other batches were normalized to this value.
For orientation: Formazan colour is commonly taken as a measure of viable cells.

In another data set the test system is transgenic AD mice. The note with it: oral administration in drinking water; cited from earlier work.

Sequence of Aβ1-42 species of different size (P05067 672-713 limits assumed): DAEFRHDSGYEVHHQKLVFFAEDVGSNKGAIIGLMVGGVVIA
Sequence of Aβ1-42 (P05067 672-713 limits assumed): as above
T1 sequence (P05067 672-713): as the sequence (P05067 672-713 limits assumed) above

For the substance “HTWTTYDYVWRL (H-[dH][dT][dW][dT][dT][dY][dD][dY][dV][dW][dR][dL]-NH2; SMILES CC(C)C[C@@H](NC(=O)[C@@H](CCCNC(=N)N)NC(=O)[C@@H](Cc1c[nH]c2ccccc12)NC(=O)[C@H](NC(=O)[C@@H](Cc1ccc(O)cc1)NC(=O)[C@@H](CC(=O)O)NC(=O)[C@@H](Cc1ccc(O)cc1)NC(=O)[C@H](NC(=O)[C@H](NC(=O)[C@@H](Cc1c[nH]c2ccccc12)NC(=O)[C@H](NC(=O)[C@H](N)Cc1c[nH]cn1)[C@H](C)O)[C@H](C)O)[C@H](C)O)C(C)C)C(N)=O) [Mosd2]”, the “relative ThT fluorescence (formation of β-pleated sheet structures)” value (“relative ThT fluorescence” for short) with Aβ1-42 is listed as “increase the ThT fluorescence”. Besides, in data set [1], the “oligomeric Aβ1-42 species (fractions 4-7)” value was “reduce” and the “proportions of high-molecular Aβ1-42 species (fractions 10-14)” value is “increase”. Besides, in data set [2], the “Difference in signal strength between Aβ1-42 monomers (100%) and Aβ1-42 oligomers and fibrils” value worked out at 67.145%. On to “VHWDFRQWWQPS (H-[dV][dH][dW][dD][dF][dR][dQ][dW][dW][dQ][dP][dS]-NH2; SMILES CC(C)[C@@H](N)C(=O)N[C@H](Cc1c[nH]cn1)C(=O)N[C@H](Cc1c[nH]c2ccccc12)C(=O)N[C@H](CC(=O)O)C(=O)N[C@H](Cc1ccccc1)C(=O)N[C@H](CCCNC(=N)N)C(=O)N[C@H](CCC(N)=O)C(=O)N[C@H](Cc1c[nH]c2ccccc12)C(=O)N[C@H](Cc1c[nH]c2ccccc12)C(=O)N[C@H](CCC(N)=O)C(=O)N1CCC[C@@H]1C(=O)N[C@H](CO)C(N)=O) [Mosd20]”, for which, in data set [2], the “Difference in signal strength between Aβ1-42 monomers (100%) and Aβ1-42 oligomers and fibrils” value is 45.718%. Consider “DLRFSSLWKLSH (H-[dD][dL][dR][dF][dS][dS][dL][dW][dK][dL][dS][dH]-NH2; SMILES CC(C)C[C@@H](NC(=O)[C@H](N)CC(=O)O)C(=O)N[C@H](CCCNC(=N)N)C(=O)N[C@H](Cc1ccccc1)C(=O)N[C@H](CO)C(=O)N[C@H](CO)C(=O)N[C@H](CC(C)C)C(=O)N[C@H](Cc1c[nH]c2ccccc12)C(=O)N[C@H](CCCCN)C(=O)N[C@H](CC(C)C)C(=O)N[C@H](CO)C(=O)N[C@H](Cc1c[nH]cn1)C(N)=O) [Mosd19]”, for which, in data set [2], the “Difference in signal strength between Aβ1-42 monomers (100%) and Aβ1-42 oligomers and fibrils” value came to 50.299%. On to “HNWFYWTTEPYD (H-[dH][dN][dW][dF][dY][dW][dT][dT][dE][dP][dY][dD]-NH2; SMILES C[C@H](O)[C@@H](NC(=O)[C@@H](Cc1c[nH]c2ccccc12)NC(=O)[C@@H](Cc1ccc(O)cc1)NC(=O)[C@@H](Cc1ccccc1)NC(=O)[C@@H](Cc1c[nH]c2ccccc12)NC(=O)[C@@H](CC(N)=O)NC(=O)[C@H](N)Cc1c[nH]cn1)C(=O)N[C@@H](C(=O)N[C@H](CCC(=O)O)C(=O)N1CCC[C@@H]1C(=O)N[C@H](Cc1ccc(O)cc1)C(=O)N[C@H](CC(=O)O)C(N)=O)[C@H](C)O) [Mosd4]”, for which the “relative ThT fluorescence” value with Aβ1-42 is listed as “only a very small influence”. The “Difference in signal strength between Aβ1-42 monomers (100%) and Aβ1-42 oligomers and fibrils” value in data set [2] came out at 69.154%. As for TritonX-100 [reference compound], in the data set with PC-12 cells, the “amount of viable cells (untreated cells = 100%)” value was found to be 1.5%. On to “GQWDFRQWWQPC (H-G[dQ][dW][dD][dF][dR][dQ][dW][dW][dQ][dP][dC]-NH2; SMILES N=C(N)NCCC[C@@H](NC(=O)[C@@H](Cc1ccccc1)NC(=O)[C@@H](CC(=O)O)NC(=O)[C@@H](Cc1c[nH]c2ccccc12)NC(=O)[C@@H](CCC(N)=O)NC(=O)CN)C(=O)N[C@H](CCC(N)=O)C(=O)N[C@H](Cc1c[nH]c2ccccc12)C(=O)N[C@H](Cc1c[nH]c2ccccc12)C(=O)N[C@H](CCC(N)=O)C(=O)N1CCC[C@@H]1C(=O)N[C@H](CS)C(N)=O) [Mosd15]”, for which the “Difference in signal strength between Aβ1-42 monomers (100%) and Aβ1-42 oligomers and fibrils” value in data set [2] is on record as 59.985%.

On to “YSFHFEMNMGNY (H-[dY][dS][dF][dH][dF][dE][dM][dN][dM]G[dN][dY]-NH2; SMILES CSCC[C@@H](NC(=O)[C@@H](CC(N)=O)NC(=O)[C@@H](CCSC)NC(=O)[C@@H](CCC(=O)O)NC(=O)[C@@H](Cc1ccccc1)NC(=O)[C@@H](Cc1c[nH]cn1)NC(=O)[C@@H](Cc1ccccc1)NC(=O)[C@@H](CO)NC(=O)[C@H](N)Cc1ccc(O)cc1)C(=O)NCC(=O)N[C@H](CC(N)=O)C(=O)N[C@H](Cc1ccc(O)cc1)C(N)=O) [Mosd13]”, for which the “Difference in signal strength between Aβ1-42 monomers (100%) and Aβ1-42 oligomers and fibrils” value in data set [2] is on record as 57.246%. In the case of “GTMLKFSGMNLT (H-G[dT][dM][dL][dK][dF][dS]G[dM][dN][dL][dT]-NH2; SMILES CSCC[C@@H](NC(=O)CNC(=O)[C@@H](CO)NC(=O)[C@@H](Cc1ccccc1)NC(=O)[C@@H](CCCCN)NC(=O)[C@@H](CC(C)C)NC(=O)[C@@H](CCSC)NC(=O)[C@H](NC(=O)CN)[C@H](C)O)C(=O)N[C@H](CC(N)=O)C(=O)N[C@H](CC(C)C)C(=O)N[C@@H](C(N)=O)[C@H](C)O) [Mosd3]”, in the data set with Aβ1-42, the “relative ThT fluorescence” value was “increase the ThT fluorescence”. Moreover, in data set [1], the “oligomeric Aβ1-42 species (fractions 4-7)” value is reported as “reduce” and the “proportions of high-molecular Aβ1-42 species (fractions 10-14)” value was “increase”. In addition, in data set [2], the “Difference in signal strength between Aβ1-42 monomers (100%) and Aβ1-42 oligomers and fibrils” value came to 59.955%. Regarding “VHWDFRQWWQQS (H-[dV][dH][dW][dD][dF][dR][dQ][dW][dW][dQ][dQ][dS]-NH2; SMILES CC(C)[C@@H](N)C(=O)N[C@H](Cc1c[nH]cn1)C(=O)N[C@H](Cc1c[nH]c2ccccc12)C(=O)N[C@H](CC(=O)O)C(=O)N[C@H](Cc1ccccc1)C(=O)N[C@H](CCCNC(=N)N)C(=O)N[C@H](CCC(N)=O)C(=O)N[C@H](Cc1c[nH]c2ccccc12)C(=O)N[C@H](Cc1c[nH]c2ccccc12)C(=O)N[C@H](CCC(N)=O)C(=O)N[C@H](CCC(N)=O)C(=O)N[C@H](CO)C(N)=O) [Mosd12]”, the “Difference in signal strength between Aβ1-42 monomers (100%) and Aβ1-42 oligomers and fibrils” value in data set [2] came out at 59.012%. For the substance rprtrlhthrnr [Mosd D3], in the data set with transgenic AD mice, the cognitive capabilities result was “significantly improved cognitive capabilities” and the plaques result is on record as “much fewer plaques”.
